Experiments:
Assay in all cases: not given (FIG. 24A)
[1] = target: FIX zymogen (non-activatable FIX) (UniProt P00740)
[2] = target: FX zymogen (UniProt P00742)
[3] = target: activated Factor X (FXa) (Homo sapiens (Human)) (UniProt P00742)
[4] = target: free FIXa (activated Factor IX) (human) (UniProt P00740)

Measured: Kd

Chain of activated Factor X (FXa) (Homo sapiens (Human)) (P00742 41-179, chain 1 of 2): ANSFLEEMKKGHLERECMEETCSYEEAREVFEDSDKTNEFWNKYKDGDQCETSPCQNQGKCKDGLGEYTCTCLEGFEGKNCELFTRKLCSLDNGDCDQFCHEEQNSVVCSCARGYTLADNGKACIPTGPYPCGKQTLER
Chain of activated Factor X (FXa) (Homo sapiens (Human)) (P00742 235-488, chain 2 of 2): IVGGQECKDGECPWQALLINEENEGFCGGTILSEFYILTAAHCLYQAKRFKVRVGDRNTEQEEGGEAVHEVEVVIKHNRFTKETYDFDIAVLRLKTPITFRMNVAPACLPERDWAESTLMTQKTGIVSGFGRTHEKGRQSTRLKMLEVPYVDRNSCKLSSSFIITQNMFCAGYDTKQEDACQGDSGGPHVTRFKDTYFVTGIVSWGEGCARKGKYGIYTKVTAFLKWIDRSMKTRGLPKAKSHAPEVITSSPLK
Chain of FX zymogen (P00742 41-179, chain 1 of 2): as the sequence (P00742 41-179, chain 1 of 2) above
Chain of FX zymogen (P00742 183-488, chain 2 of 2): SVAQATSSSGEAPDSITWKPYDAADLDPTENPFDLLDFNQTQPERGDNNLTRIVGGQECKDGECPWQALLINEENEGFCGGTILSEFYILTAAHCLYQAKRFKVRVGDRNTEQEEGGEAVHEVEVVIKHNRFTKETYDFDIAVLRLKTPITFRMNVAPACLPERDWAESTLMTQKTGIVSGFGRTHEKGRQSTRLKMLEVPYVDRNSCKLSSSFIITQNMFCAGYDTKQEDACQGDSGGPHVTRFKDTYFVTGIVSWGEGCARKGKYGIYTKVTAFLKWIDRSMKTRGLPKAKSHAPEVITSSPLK

emicizumab (ACE910) sequence identical bispecific antibody (emicizumab biosimilar)
1000 nM: [1] | [2] | [3] | [4]

From patent publication US20230192896A1
